These results are taken from article PMC13585564.

In one test the target is CTNIP4(46–70)_(Cys–Cys). In words: ITC. The conditions noted are these: ligand in syringe, receptor in cell; N = 1.
In test [1] the target is SERK1 ectodomain (residues 24–213) (UniProt Q94AG2). In words: ITC. The conditions noted are these: SERK1 in syringe; HSL3 + peptide in cell; N = 1.
Test [2] addresses HSL3 ectodomain (wild type, residues 23–627) (Arabidopsis). Put plainly: ITC; CTNIP4 peptide (140–800 µM, syringe) injected into 15 µM HSL3 ectodomain or variant (cell); 25 °C; 20 mM sodium citrate, 150 mM NaCl, pH 5.0; N fitted to 1. (In general: Isothermal titration calorimetry measures the heat released or taken up as one component is titrated into another.)
Another test addresses SERK3. In words: ITC. The conditions noted are these: SERK3 in syringe; HSL3 + peptide in cell; N = 1.
The target in test [3] is HSL3 ectodomain (wild type, residues 23–627). In words: ITC. The conditions noted are these: ligand in syringe, receptor in cell; N = 1.

What is called Kd is the equilibrium constant for the complex coming apart.

Sequence of SERK1 ectodomain (residues 24–213) (Q94AG2 whole entry, looked up, the tested form may be a part): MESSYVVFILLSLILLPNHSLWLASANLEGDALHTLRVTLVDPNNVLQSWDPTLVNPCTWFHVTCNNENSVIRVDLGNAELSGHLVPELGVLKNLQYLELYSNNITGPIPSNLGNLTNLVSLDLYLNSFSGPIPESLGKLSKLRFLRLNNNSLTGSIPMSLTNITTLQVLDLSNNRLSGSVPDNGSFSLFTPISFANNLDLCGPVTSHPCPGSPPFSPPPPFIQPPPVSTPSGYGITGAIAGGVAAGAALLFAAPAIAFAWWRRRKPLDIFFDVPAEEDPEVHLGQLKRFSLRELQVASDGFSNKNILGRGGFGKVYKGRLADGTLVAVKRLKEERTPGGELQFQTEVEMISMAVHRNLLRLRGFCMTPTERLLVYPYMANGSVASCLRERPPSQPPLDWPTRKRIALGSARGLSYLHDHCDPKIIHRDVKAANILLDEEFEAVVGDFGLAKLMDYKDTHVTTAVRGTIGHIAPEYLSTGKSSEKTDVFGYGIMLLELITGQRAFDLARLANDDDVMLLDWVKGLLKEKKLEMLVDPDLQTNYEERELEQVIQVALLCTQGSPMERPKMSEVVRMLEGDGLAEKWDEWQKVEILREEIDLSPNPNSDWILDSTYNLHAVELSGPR

The substance “HSL3 ectodomain (wild type, residues 23–627) E171A” had an other: ΔH in the test with CTNIP4(46–70)_(Cys–Cys) of -21.2 kcal/mol.
As for HSL3 + CTNIP4(46–63) C58A, the other: ΔH in test [1] was -3.7 kcal/mol.
Regarding “CTNIP4^C58A.C68A(46–70)_(linear) (peptide)”, the fold impairment of binding against CTNIP4(46–70) (Cys–Cys) in test [2] came out at 200 fold.
As to “HSL3–CTNIP4 complex (HSL3 ectodomain pre-incubated with CTNIP4(46–70)_(Cys–Cys)) C58A; C68A”, in test [1], the other: ΔH was -7.1 kcal/mol.
Consider “HSL3 ectodomain (wild type, residues 23–627) D241A”, for which, in the test with CTNIP4(46–70)_(Cys–Cys), the other: ΔH is -17.6 kcal/mol.
Regarding “HSL3–CTNIP4 complex (HSL3 ectodomain pre-incubated with CTNIP4(46–70)_(Cys–Cys)) N60F”, the other: ΔH with SERK3 came out at 13.2 kcal/mol.
The same measure, in the same setting: the result for “HSL3–CTNIP4 complex (HSL3 ectodomain pre-incubated with CTNIP4(46–70)_(Cys–Cys)) N60A” reads 3.3 kcal/mol.
In test [3], CTNIP4(46–70)_(Cys–Cys) S53A had a Kd of 3440 nM and an other: ΔH of -17.5 kcal/mol.
In the test with CTNIP4(46–70)_(Cys–Cys), “HSL3 ectodomain (wild type, residues 23–627) R358A” showed a Kd of 112 nM and an other: ΔH of -25.9 kcal/mol.
In the test with CTNIP4(46–70)_(Cys–Cys), “HSL3 ectodomain (wild type, residues 23–627) D288A” registered an other: ΔH of -3.4 kcal/mol.
